Data from the RNAGym collection of RNA variant scans (doi:10.1073/pnas.2313332121).

B1: TPR t1 (parent)
chain: GACCAAUCUGCCCUCAGAGCUCGAGAACAUCUUCGGAUGCAGAGGAGGCAGGCUUCGGUGGCGCGAUAGCGCCAACGUCCUCAACCUCCAAUGCAUCCCACCACAUGAUGAUGCCUGAAGAGCCUUGGUUUUUUG

Variants of: B1
Experiment: polymerase ribozyme fitness, log enrichment relative to wild type (log ratio); higher = more active; in vitro selection for triplet polymerase activity
Summary of the method: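 Libraries of mutants in each subunit of a heterodimeric triplet polymerase ribozyme were generated by PCR and transcribed. In triplicate, each went through one in vitro selection round: annealing with biotinylated primer, partner subunit and triplets; frozen incubation at −7 °C; gel excision of extended constructs; streptavidin-bead capture; RT-PCR. Fitness, taken from Illumina sequencing of input and output libraries, is the logarithm of a genotype's enrichment over wild-type enrichment, averaged across replicates with inverse-variance weights. The logarithm is base 2, and genotypes needed ≥10 input reads and ≥1 read per output to be kept.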

Point of comparison: GACCAAUCUGCCCUCAGAGCUCGAGAACAUCUUCGGUUGCAGAGGAGGCAGGCUUCGGUGGCGCGAUAACGCCAACAUCCUCAACCUCCUAUGCAUCCCACCACAUGAUGAUGCCUGAAGAGUCUUGGUUUUUUG, “polymerase ribozyme fitness (log ratio)” value -5.05. Against it:
- GACCAACCUGCCCUCAGAGUUCGAGAACAUCUUCGGAUGCAGAGGAGGCAGGCUUCGGUGGAGCGAUAGCGCCAACGUCCUCCACCUCCAAUGCAUCCCACCACAUGAUGAUGCCUGAGGAGCCUUGGUUUUUUG — higher, -1.83
- GACCAAUCUGCCCUAAGAGUUCGAGAACAUCUUCGGAUGCAGAGGAGGCAGGCUUCGGUGGCGCGAUAGCGCCAACGUCCUCAACCUCCAAUGCAUCCCACCACAUGAUGAUGCCUGAAGAGCCUUGGUUUUUUG — higher, -3.39
- GACCAAUCUGCCCUCAGAGCUCGAGAACAUCUUCGGAUGCAGAGGAGGCAGGCUUCGGUCGCGCGAUAGCGCCAACGUCCUCAACCUCCAAUGCAUCCCACCACAUGAUGAUGCCUGAAGAGCCUUGGUAUUAUG — higher, -1.59
- GACCAAUCAGCCCUCAGAGCUCGAGAACAUCUUCGGAUGCAGAGGAGGCAGGCUUCGGUGGCGCGAUAGCGCCAACGUCCUCAACCUCCAAUGCAUGCCACCACGUGAUGAUGCUUAAAGAGCCUUGGUUUUUUG — lower, -7.76
- GACCAAUCUGCCCUCAGAGCUCGAGAACAUCUUCGGAUGCAGAGGAGACAGGCUUCGGUGGCGCGAUAGCGCCAACGUACUCAACCUCCAAUGCAUCCCACCACAUGAUGAUGCCUGAAGAGCCUCGGUUUUUUG — higher, -2.73
- GAUCAAUCUGCCCUCCAAGCUCGAGAACAUCUUCGGAUGCAGAGGAGGCAGGCCUCGGUGGCGCGAUAGCGCCAACGCCCUCAACCUCCCAUGCAUCCCACCACAUGAUGAUGCCUGAAGAGCCUUGGUUUUUUG — higher, -2.6
- GACCAAUCUGCCCUCAGAGCUCGAGAACAUCUUCGGAUGCAGAGGAGGUAGGCUUCGGUGGUGCGAUAGCGCCAACGUCCUCAACCUCCAAUGCAUCCCACCACAUGAUGAUGCCUGUAGAGCCUUGGUUUUUUG — higher, -0.00141
- GACCAAUCUGCCCUCAGAGCUCGAGAACAUCUUGGGAUGCAGAGGAGGCAGGCUUCGGUGGCGCGAUAGCGCCAACGUCCUCAACCUCCAAUGCAUCCUACCACAUGAUGAUGCCUGAAGAGCCUUGGUAUUUUG — higher, -4.6
- GACCAAUCUGCCCUCAGAGCUCGAGAACAUCUUCGGAUGCAGAGGAGGCAGGCUUCGGUGGCGCGAUAGUGCCAACCUCCUCAACCUCCAAUGCAUCCCACCACAUGAUGAUGCCUGAAGAGCCUUGGUUUUUUG — higher, -1.78
- GACCAAUCUGCCCUCAUAGCUCGAGAACAUCUUCGGUUGCAGAGGAGGCAGGCUUCGGUAGCGCGAUAGCGCCAACGUCCUUAACCUCCAAUGCAUCCCACCACAUGAUGAUGCCUGAAGAGCCUUGGUUUUUUG — higher, -2.4
- GACCAAUCUGCUCUCAGAGCUCGAGAACUUCUUCGGAUGCAGAGGAGGCAGCCUUCGGUGGCGCGAUAGCGCUAACGUCCUCAACCUCCAAUGCAUCCCACCACAUGAUGAUGCCUGAAGAGCCUUGGUUUUUUG — higher, -1.91
- GACCAAUCUGACCUCAGAGCUCGAGAACAUCUUCGGAUGUAGAGGAGGUAGGCUUAGGUGGCGCGAUAGCGCCAACGUCCUCAACCUCCAAUGCAUCCCACCACAUGAUGAUGCCUGAAGAGGCUUGGAUUUUUG — higher, -3.2
- GACGAAUCUGCGCUCAGAGCUCGAGAACAUCUUCGGAUGCAGAGGAGGCAGGCUUCGGUGCCGCGAUAGCGCCAACGUACUAAACCUCCAAUGCAUCCCACCACAUGAUGAUGCCUGAAGAGCUUUGGUUUUUUG — higher, -3.71
- GACCAAUCUGCCCUCAGAGCUCGAGAACAUCUUAGGAUGCAGAGGAGGCAGGCUUCGGUGACGCGAUAGCGCCAACGUCCUCAACCUCCAAUGCAUCCCACCACAUGAUGAAGCUUGAAGAGCCUUGGUUUUUUG — lower, -6.79
- GACCAAUCUGCCCUCAGAGCUCGAGAACAUCUUCGGAUGCUGAGGAGGCAGGCUUCGGUGGCGCGAUAGCGCCAACGUCCUCAACCUCCAAUGCAUCCCACCACAUGAUAAUGCCUGAAGAGCCUUGGUUUUUUG — higher, -2.6
- GACCAAUCUGCCCUCAGAGCUCGAGAACAUCUUCGGAUGCAGAGAAGGCAGGCUUCGGUGGCGCGAUAGCGCCUACGUCCUCAACCUCCAAUGCAUCCCACCACAUGAUGAGGCCUGAAGAGCCUUGGUUUUUUG — higher, -0.353
- GACCAAUCUGCCCUCAGAGCUCGAGAUCAUCUUCGGAUGCAGAGGAGGCAGGCUUCGGUGGCGCGAUAGCGCCAACGUCCUCAACCUCCAAUGCAUUCCACCACAUGAUGAAGCCUGAAGAGCCUUGGUUUUUUG — higher, -3.08
- GACCAAUCUGCCCUCAGAGCUCGAGAACAUCUUCGGAUGCAGAGGAGGCAGGCUUCGGUGGCGCGAUAGGGCCAACGUCCUCAACCUCCAAUGCAUCCCACCACAUGAUGAUGCCUGAAGAGCCUUGGUUUUUUA — higher, -3.36
- GACCAAUUUGCCCUCAGAGCUCGAGAACAUCUUCGGAUGCAGAGGAGGCAGGCUUCGGUGUCGCGAUAGCGCCAACGUCCUCAACCUGCAAUGCAUCCCACCACAUGAAGAUGCCUGAAGAGCCUUGGUUUUCUG — higher, -4.61
- GACCAAUCUGCCCUCAGAGCUCGAGAACAUCUUCGGAUGCAGAGGAGGCAGGCUUCGGUGGCGCGAUAGCGCCAACCUCCUCAACCUCCAACGCAUCCCACCACAUGAUGAUGCCUGAAGAACCUUGGUUUUUUG — higher, -2.81
